Laboratory results from patent US20220125940A1 (Novo Nordisk, published 2022).
Starred links: 1 amine or outer side, 2 acyl side, 3 side chain; linkers in the order of their positions; H or OH if unused. Non-standard residues stand in square brackets, D forms with d. Groups on a side chain read outwards from the residue. No end group written: not given here. *: point of attachment. C18 diacid = O=C(O)CCCCCCCCCCCCCCCCC(=O)*; γGlu = O=C(O)[C@H](CCC(=O)[*:2])N[*:1]; εLys = N[C@@H](CCCCN[*:1])C(=O)[*:2]; AEEA = NCCOCCOCC(=O)O; Aib = CC(C)(N)C(=O)O

B1: Compound No. 10 (peptide)
peptide: Y[Aib]EGTFTSDYSIYLEK([AEEA-AEEA-γGlu-C18 diacid])QAAREFIEWLLAGGPSSGAPPPS-OH
modifications: N-terminus assumed
SMILES: CC[C@H](C)[C@H](NC(=O)[C@H](Cc1ccccc1)NC(=O)[C@H](CCC(=O)O)NC(=O)[C@H](CCCNC(=N)N)NC(=O)[C@H](C)NC(=O)[C@H](C)NC(=O)[C@H](CCC(N)=O)NC(=O)[C@H](CCCCNC(=O)COCCOCCNC(=O)COCCOCCNC(=O)CC[C@H](NC(=O)CCCCCCCCCCCCCCCCC(=O)O)C(=O)O)NC(=O)[C@H](CCC(=O)O)NC(=O)[C@H](CC(C)C)NC(=O)[C@H](Cc1ccc(O)cc1)NC(=O)[C@@H](NC(=O)[C@H](CO)NC(=O)[C@H](Cc1ccc(O)cc1)NC(=O)[C@H](CC(=O)O)NC(=O)[C@H](CO)NC(=O)[C@@H](NC(=O)[C@H](Cc1ccccc1)NC(=O)[C@@H](NC(=O)CNC(=O)[C@H](CCC(=O)O)NC(=O)C(C)(C)NC(=O)[C@@H](N)Cc1ccc(O)cc1)[C@@H](C)O)[C@@H](C)O)[C@@H](C)CC)C(=O)N[C@@H](CCC(=O)O)C(=O)N[C@@H](Cc1c[nH]c2ccccc12)C(=O)N[C@@H](CC(C)C)C(=O)N[C@@H](CC(C)C)C(=O)N[C@@H](C)C(=O)NCC(=O)NCC(=O)N1CCC[C@H]1C(=O)N[C@@H](CO)C(=O)N[C@@H](CO)C(=O)NCC(=O)N[C@@H](C)C(=O)N1CCC[C@H]1C(=O)N1CCC[C@H]1C(=O)N1CCC[C@H]1C(=O)N[C@@H](CO)C(=O)O
B2: Compound No. 20 (peptide)
peptide: Y[Aib]EGTFTSDYSILLEK([εLys-εLys-γGlu-C18 diacid])QAAREFINWLLAGGPSS-OH
modifications: N-terminus assumed
SMILES: CC[C@H](C)[C@H](NC(=O)[C@H](Cc1ccccc1)NC(=O)[C@H](CCC(=O)O)NC(=O)[C@H](CCCNC(=N)N)NC(=O)[C@H](C)NC(=O)[C@H](C)NC(=O)[C@H](CCC(N)=O)NC(=O)[C@H](CCCCNC(=O)[C@@H](N)CCCCNC(=O)[C@@H](N)CCCCNC(=O)CC[C@H](NC(=O)CCCCCCCCCCCCCCCCC(=O)O)C(=O)O)NC(=O)[C@H](CCC(=O)O)NC(=O)[C@H](CC(C)C)NC(=O)[C@H](CC(C)C)NC(=O)[C@@H](NC(=O)[C@H](CO)NC(=O)[C@H](Cc1ccc(O)cc1)NC(=O)[C@H](CC(=O)O)NC(=O)[C@H](CO)NC(=O)[C@@H](NC(=O)[C@H](Cc1ccccc1)NC(=O)[C@@H](NC(=O)CNC(=O)[C@H](CCC(=O)O)NC(=O)C(C)(C)NC(=O)[C@@H](N)Cc1ccc(O)cc1)[C@@H](C)O)[C@@H](C)O)[C@@H](C)CC)C(=O)N[C@@H](CC(N)=O)C(=O)N[C@@H](Cc1c[nH]c2ccccc12)C(=O)N[C@@H](CC(C)C)C(=O)N[C@@H](CC(C)C)C(=O)N[C@@H](C)C(=O)NCC(=O)NCC(=O)N1CCC[C@H]1C(=O)N[C@@H](CO)C(=O)N[C@@H](CO)C(=O)O
B3: Compound No. 21 (peptide)
peptide: Y[Aib]EGTFTSDYSILLEK([εLys-εLys-γGlu-C18 diacid])QAAREFINWLLAGGPSSGA-OH
modifications: N-terminus assumed
SMILES: CC[C@H](C)[C@H](NC(=O)[C@H](Cc1ccccc1)NC(=O)[C@H](CCC(=O)O)NC(=O)[C@H](CCCNC(=N)N)NC(=O)[C@H](C)NC(=O)[C@H](C)NC(=O)[C@H](CCC(N)=O)NC(=O)[C@H](CCCCNC(=O)[C@@H](N)CCCCNC(=O)[C@@H](N)CCCCNC(=O)CC[C@H](NC(=O)CCCCCCCCCCCCCCCCC(=O)O)C(=O)O)NC(=O)[C@H](CCC(=O)O)NC(=O)[C@H](CC(C)C)NC(=O)[C@H](CC(C)C)NC(=O)[C@@H](NC(=O)[C@H](CO)NC(=O)[C@H](Cc1ccc(O)cc1)NC(=O)[C@H](CC(=O)O)NC(=O)[C@H](CO)NC(=O)[C@@H](NC(=O)[C@H](Cc1ccccc1)NC(=O)[C@@H](NC(=O)CNC(=O)[C@H](CCC(=O)O)NC(=O)C(C)(C)NC(=O)[C@@H](N)Cc1ccc(O)cc1)[C@@H](C)O)[C@@H](C)O)[C@@H](C)CC)C(=O)N[C@@H](CC(N)=O)C(=O)N[C@@H](Cc1c[nH]c2ccccc12)C(=O)N[C@@H](CC(C)C)C(=O)N[C@@H](CC(C)C)C(=O)N[C@@H](C)C(=O)NCC(=O)NCC(=O)N1CCC[C@H]1C(=O)N[C@@H](CO)C(=O)N[C@@H](CO)C(=O)NCC(=O)N[C@@H](C)C(=O)O
B4: Compound No. 18 (peptide)
peptide: Y[Aib]EGTFTSDYSILLEK([εLys-εLys-γGlu-C18 diacid])QAAREFINWLLAG-OH
modifications: N-terminus assumed
SMILES: CC[C@H](C)[C@H](NC(=O)[C@H](Cc1ccccc1)NC(=O)[C@H](CCC(=O)O)NC(=O)[C@H](CCCNC(=N)N)NC(=O)[C@H](C)NC(=O)[C@H](C)NC(=O)[C@H](CCC(N)=O)NC(=O)[C@H](CCCCNC(=O)[C@@H](N)CCCCNC(=O)[C@@H](N)CCCCNC(=O)CC[C@H](NC(=O)CCCCCCCCCCCCCCCCC(=O)O)C(=O)O)NC(=O)[C@H](CCC(=O)O)NC(=O)[C@H](CC(C)C)NC(=O)[C@H](CC(C)C)NC(=O)[C@@H](NC(=O)[C@H](CO)NC(=O)[C@H](Cc1ccc(O)cc1)NC(=O)[C@H](CC(=O)O)NC(=O)[C@H](CO)NC(=O)[C@@H](NC(=O)[C@H](Cc1ccccc1)NC(=O)[C@@H](NC(=O)CNC(=O)[C@H](CCC(=O)O)NC(=O)C(C)(C)NC(=O)[C@@H](N)Cc1ccc(O)cc1)[C@@H](C)O)[C@@H](C)O)[C@@H](C)CC)C(=O)N[C@@H](CC(N)=O)C(=O)N[C@@H](Cc1c[nH]c2ccccc12)C(=O)N[C@@H](CC(C)C)C(=O)N[C@@H](CC(C)C)C(=O)N[C@@H](C)C(=O)NCC(=O)O
B5: Compound No. 19 (peptide)
peptide: Y[Aib]EGTFTSDYSILLEK([εLys-εLys-γGlu-C18 diacid])QAAREFINWLLAGGP-OH
modifications: N-terminus assumed
SMILES: CC[C@H](C)[C@H](NC(=O)[C@H](Cc1ccccc1)NC(=O)[C@H](CCC(=O)O)NC(=O)[C@H](CCCNC(=N)N)NC(=O)[C@H](C)NC(=O)[C@H](C)NC(=O)[C@H](CCC(N)=O)NC(=O)[C@H](CCCCNC(=O)[C@@H](N)CCCCNC(=O)[C@@H](N)CCCCNC(=O)CC[C@H](NC(=O)CCCCCCCCCCCCCCCCC(=O)O)C(=O)O)NC(=O)[C@H](CCC(=O)O)NC(=O)[C@H](CC(C)C)NC(=O)[C@H](CC(C)C)NC(=O)[C@@H](NC(=O)[C@H](CO)NC(=O)[C@H](Cc1ccc(O)cc1)NC(=O)[C@H](CC(=O)O)NC(=O)[C@H](CO)NC(=O)[C@@H](NC(=O)[C@H](Cc1ccccc1)NC(=O)[C@@H](NC(=O)CNC(=O)[C@H](CCC(=O)O)NC(=O)C(C)(C)NC(=O)[C@@H](N)Cc1ccc(O)cc1)[C@@H](C)O)[C@@H](C)O)[C@@H](C)CC)C(=O)N[C@@H](CC(N)=O)C(=O)N[C@@H](Cc1c[nH]c2ccccc12)C(=O)N[C@@H](CC(C)C)C(=O)N[C@@H](CC(C)C)C(=O)N[C@@H](C)C(=O)NCC(=O)NCC(=O)N1CCC[C@H]1C(=O)O

Tests used:
human GIP receptor = target: T1, human GIP receptor (human, UniProt P48546 22-466); test: cell-based or functional assay
T1 sequence (looked up): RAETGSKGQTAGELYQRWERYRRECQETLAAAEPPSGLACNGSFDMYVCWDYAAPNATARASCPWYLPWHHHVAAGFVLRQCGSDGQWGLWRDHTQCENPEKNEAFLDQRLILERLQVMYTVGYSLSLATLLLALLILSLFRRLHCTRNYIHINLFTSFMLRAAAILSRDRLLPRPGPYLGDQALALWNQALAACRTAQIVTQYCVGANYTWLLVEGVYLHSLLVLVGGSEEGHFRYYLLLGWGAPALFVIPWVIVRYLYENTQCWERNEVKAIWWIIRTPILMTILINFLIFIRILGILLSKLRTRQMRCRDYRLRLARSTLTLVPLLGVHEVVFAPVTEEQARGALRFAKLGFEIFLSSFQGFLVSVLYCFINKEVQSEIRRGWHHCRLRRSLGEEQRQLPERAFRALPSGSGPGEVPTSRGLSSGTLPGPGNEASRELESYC

human GLP-1 receptor = human GLP-1 receptor (human, UniProt P43220 24-463); test: cell-based or functional assay
Sequence of human GLP-1 receptor (P43220 24-463): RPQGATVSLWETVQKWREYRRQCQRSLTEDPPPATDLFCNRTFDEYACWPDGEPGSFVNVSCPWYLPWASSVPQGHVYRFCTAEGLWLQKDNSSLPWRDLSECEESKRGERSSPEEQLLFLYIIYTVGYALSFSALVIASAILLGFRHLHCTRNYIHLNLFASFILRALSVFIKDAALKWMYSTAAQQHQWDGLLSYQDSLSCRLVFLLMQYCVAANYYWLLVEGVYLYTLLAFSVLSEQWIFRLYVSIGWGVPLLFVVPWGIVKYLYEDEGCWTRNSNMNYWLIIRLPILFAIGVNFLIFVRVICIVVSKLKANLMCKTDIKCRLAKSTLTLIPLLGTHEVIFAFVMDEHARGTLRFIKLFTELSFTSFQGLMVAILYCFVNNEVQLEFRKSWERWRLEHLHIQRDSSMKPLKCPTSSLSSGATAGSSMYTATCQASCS

| Molecule | hGIPR, CRE Luc 0% HSA EC50 (pM) (human GIP receptor) | hGIPR, CRE Luc 1% HSA EC50 (pM) (human GIP receptor) | hGLP-1R, CRE Luc 0% HSA EC50 (pM) (human GLP-1 receptor) | hGLP-1R, CRE Luc 1% HSA EC50 (pM) (human GLP-1 receptor) |
| --- | --- | --- | --- | --- |
| human GIP (from UniProt P09681 52-93) (ligand) | 11.3 | 6.4 |  |  |
| B1 | 11.3 |  |  |  |
| B2 | 7.1 | 247 | 4.2 | 256 |
| B3 | 5.4 | 131 | 5.7 | 118 |
| B4 | 20.9 | 285 | 19.7 | 226 |
| B5 | 6.5 | 275 | 8.6 | 365 |
